The record followed here is US20170335016A1 (Kyowa Kirin, published 2017).

The labels stand for the following.
B1: 341VL34 scFv (scFv)
scFv: EVQLVESGGGLVKPGGSLRLSCGGSGFTFNNAWMNWVRQAPGKGLEWVGRIKGKTDGGTADYAAPVKGRFTISRDYSKNTLYLQMNSLTTEDTAVYYCNTDLPYYYGSGRYSGMDVWGQGTTVTVSSGGGGSGGRASGGGGSEIVLTQSPATLSLSPGERATLSCRASQSVSSYLAWYQQKPGQAPRLLIYDASNRATGIPARFSGSGSGTDFTLTISSLEPEDFAVYYCQQRSNTFGPGTKVDIK
notes: phage culture supernatant
B2: 341VL36 scFv (scFv)
scFv: B1 scFv with T89K, A94G, N99T, D101Y, G109E, Y111W
notes: phage culture supernatant
B3: anti-CD28 antibody 341VL34 (antibody, V domains shown)
VH: EVQLVESGGGLVKPGGSLRLSCGGSGFTFNNAWMNWVRQAPGKGLEWVGRIKGKTDGGTADYAAPVKGRFTISRDYSKNTLYLQMNSLTTEDTAVYYCNTDLPYYYGSGRYSGMDVWGQGTTVTVSS
VL: EIVLTQSPATLSLSPGERATLSCRASQSVSSYLAWYQQKPGQAPRLLIYDASNRATGIPARFSGSGSGTDFTLTISSLEPEDFAVYYCQQRSNTFGPGTKVDIK
notes: Made in the N5KG2Ser vector; Tested as culture supernatant; not shown: human immunoglobulin kappa light chain constant region
B4: anti-CD28 antibody 341VL36 (antibody, V domains shown)
VH: B3 VH with T89K, A94G, N99T, D101Y, G109E, Y111W
VL: B3 VL
notes: as for B3
B5: DVD341VL34-341 (bispecific antibody, human IgG2, kappa)
heavy: EVQLVESGGGLVKPGGSLRLSCGGSGFTFNNAWMNWVRQAPGKGLEWVGRIKGKTDGGTADYAAPVKGRFTISRDYSKNTLYLQMNSLTTEDTAVYYCNTDLPYYYGSGRYSGMDVWGQGTTVTVSSASTKGPQVQLQQSGPGLVKPSQTLSLTCAISGDSVSSNSATWNWIRQSPSRDLEWLGRTYYRSKWYRDYVGSVKSRIIINPDTSNNQFSLQLNSVTPEDTAIYYCTRAQWLGGDYPYYYSMDVWGQGTTVTVSSASTKGPSVFPLAPCSRSTSESTAALGCLVKDYFPEPVTVSWNSGALTSGVHTFPAVLQSSGLYSLSSVVTVPSSNFGTQTYTCNVDHKPSNTKVDKTVERKCCVECPPCPAPPVAGPSVFLFPPKPKDTLMISRTPEVTCVVVDVSHEDPEVQFNWYVDGVEVHNAKTKPREEQFNSTFRVVSVLTVVHQDWLNGKEYKCKVSNKGLPASIEKTISKTKGQPREPQVYTLPPSREEMTKNQVSLTCLVKGFYPSDIAVEWESNGQPENNYKTTPPMLDSDGSFFLYSKLTVDKSRWQQGNVFSCSVMHEALHNHYTQKSLSLSPGK
light: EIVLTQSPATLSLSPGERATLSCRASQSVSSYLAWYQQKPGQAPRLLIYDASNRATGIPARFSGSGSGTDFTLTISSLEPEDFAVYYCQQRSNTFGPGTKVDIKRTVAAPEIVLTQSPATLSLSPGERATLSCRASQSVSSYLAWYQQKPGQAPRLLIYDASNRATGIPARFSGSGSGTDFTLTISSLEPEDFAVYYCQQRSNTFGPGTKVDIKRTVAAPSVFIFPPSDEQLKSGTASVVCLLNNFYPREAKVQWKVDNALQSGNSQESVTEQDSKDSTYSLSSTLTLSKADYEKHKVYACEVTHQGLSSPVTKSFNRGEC
notes: Comparison molecule with a short linker, after Wu et al. Entries probably still carry signal peptides; Tested as culture supernatant
B6: DVD341VL36-341 (bispecific antibody, human IgG2, kappa)
heavy: B5 heavy with T89K, A94G, N99T, D101Y, G109E, Y111W
light: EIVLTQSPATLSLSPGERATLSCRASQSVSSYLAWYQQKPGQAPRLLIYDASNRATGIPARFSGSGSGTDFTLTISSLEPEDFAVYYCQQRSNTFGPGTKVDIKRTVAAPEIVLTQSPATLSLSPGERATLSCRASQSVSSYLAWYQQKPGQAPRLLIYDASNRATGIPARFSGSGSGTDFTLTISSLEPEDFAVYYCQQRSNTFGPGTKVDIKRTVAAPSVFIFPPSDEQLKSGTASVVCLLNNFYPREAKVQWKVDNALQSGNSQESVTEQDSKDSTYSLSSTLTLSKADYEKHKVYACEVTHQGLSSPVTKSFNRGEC
notes: as for B5
B7: multivalent antibody 341VL34-CH1-341 (bispecific antibody)
heavy: EVQLVESGGGLVKPGGSLRLSCGGSGFTFNNAWMNWVRQAPGKGLEWVGRIKGKTDGGTADYAAPVKGRFTISRDYSKNTLYLQMNSLTTEDTAVYYCNTDLPYYYGSGRYSGMDVWGQGTTVTVSSASTKGPSVFPLAPCSRSTSESTAALGCLVKDYFPEPVTVSWNSGALTSGVHTFPAVLQSSGLYSLSSVVTVPSSNFGTQTYTCNVDHKPSNTKVDKTVGSQVQLQQSGPGLVKPSQTLSLTCAISGDSVSSNSATWNWIRQSPSRDLEWLGRTYYRSKWYRDYVGSVKSRIIINPDTSNNQFSLQLNSVTPEDTAIYYCTRAQWLGGDYPYYYSMDVWGQGTTVTVSSASTKGPSVFPLAPCSRSTSESTAALGCLVKDYFPEPVTVSWNSGALTSGVHTFPAVLQSSGLYSLSSVVTVPSSNFGTQTYTCNVDHKPSNTKVDKTVERKCCVECPPCPAPPVAGPSVFLFPPKPKDTLMISRTPEVTCVVVDVSHEDPEVQFNWYVDGVEVHNAKTKPREEQFNSTFRVVSVLTVVHQDWLNGKEYKCKVSNKGLPASIEKTISKTKGQPREPQVYTLPPSREEMTKNQVSLTCLVKGFYPSDIAVEWESNGQPENNYKTTPPMLDSDGSFFLYSKLTVDKSRWQQGNVFSCSVMHEALHNHYTQKSLSLSPGK
light: B3 VL
notes: Anti-CD28 site N-terminal, anti-CD40 site C-terminal; Tested as culture supernatant; not shown: human immunoglobulin kappa light chain constant region
B8: multivalent antibody 341-CH1-341VL34 (bispecific antibody)
heavy: QVQLQQSGPGLVKPSQTLSLTCAISGDSVSSNSATWNWIRQSPSRDLEWLGRTYYRSKWYRDYVGSVKSRIIINPDTSNNQFSLQLNSVTPEDTAIYYCTRAQWLGGDYPYYYSMDVWGQGTTVTVSSASTKGPSVFPLAPCSRSTSESTAALGCLVKDYFPEPVTVSWNSGALTSGVHTFPAVLQSSGLYSLSSVVTVPSSNFGTQTYTCNVDHKPSNTKVDKTVGSEVQLVESGGGLVKPGGSLRLSCGGSGFTFNNAWMNWVRQAPGKGLEWVGRIKGKTDGGTADYAAPVKGRFTISRDYSKNTLYLQMNSLTTEDTAVYYCNTDLPYYYGSGRYSGMDVWGQGTTVTVSSASTKGPSVFPLAPCSRSTSESTAALGCLVKDYFPEPVTVSWNSGALTSGVHTFPAVLQSSGLYSLSSVVTVPSSNFGTQTYTCNVDHKPSNTKVDKTVERKCCVECPPCPAPPVAGPSVFLFPPKPKDTLMISRTPEVTCVVVDVSHEDPEVQFNWYVDGVEVHNAKTKPREEQFNSTFRVVSVLTVVHQDWLNGKEYKCKVSNKGLPASIEKTISKTKGQPREPQVYTLPPSREEMTKNQVSLTCLVKGFYPSDIAVEWESNGQPENNYKTTPPMLDSDGSFFLYSKLTVDKSRWQQGNVFSCSVMHEALHNHYTQKSLSLSPGK
light: B3 VL
notes: Anti-CD40 site N-terminal, anti-CD28 site C-terminal; Tested as culture supernatant; not shown: human immunoglobulin kappa light chain constant region
B9: anti-CD40 antibody 341-1-19 (antibody, IgG2, V domains shown)
VH: QVQLQQSGPGLVKPSQTLSLTCAISGDSVSSNSATWNWIRQSPSRDLEWLGRTYYRSKWYRDYVGSVKSRIIINPDTSNNQFSLQLNSVTPEDTAIYYCTRAQWLGGDYPYYYSMDVWGQGTTVTVSS
VL: B3 VL
notes: IgG2; Tested as culture supernatant; also called antibody produced by hybridoma KM341-1-19; not shown: human immunoglobulin kappa light chain constant region; kappa inferred from the anti-human κ detecti
B10: multivalent antibody 341VL36-CH1-341 (bispecific antibody)
heavy: B7 heavy with T89K, A94G, N99T, D101Y, G109E, Y111W
light: B3 VL
notes: Anti-CD28 site N-terminal, anti-CD40 site C-terminal; Entry probably still carries the signal peptide; Tested as culture supernatant; not shown: human immunoglobulin kappa light chain constant region
B11: multivalent antibody 341-CH1-341VL36 (bispecific antibody)
heavy: B8 heavy with T317K, A322G, N327T, D329Y, G337E, Y339W
light: B3 VL
notes: Anti-CD40 site N-terminal, anti-CD28 site C-terminal; Entry probably still carries the signal peptide; Tested as culture supernatant; not shown: human immunoglobulin kappa light chain constant region
B12: multivalent antibody 341VL36-CH1-H-CH2-CH3-341-CH1 (bispecific antibody)
heavy: EVQLVESGGGLVKPGGSLRLSCGGSGFTFNNAWMNWVRQAPGKGLEWVGRIKGKTDGGTADYAAPVKGRFTISRDYSKNTLYLQMNSLKTEDTGVYYCTTYLPYYYGSERWSGMDVWGQGTTVTVSSASTKGPSVFPLAPCSRSTSESTAALGCLVKDYFPEPVTVSWNSGALTSGVHTFPAVLQSSGLYSLSSVVTVPSSNFGTQTYTCNVDHKPSNTKVDKTVERKCCVECPPCPAPPVAGPSVFLFPPKPKDTLMISRTPEVTCVVVDVSHEDPEVQFNWYVDGVEVHNAKTKPREEQFNSTFRVVSVLTVVHQDWLNGKEYKCKVSNKGLPASIEKTISKTKGQPREPQVYTLPPSREEMTKNQVSLTCLVKGFYPSDIAVEWESNGQPENNYKTTPPMLDSDGSFFLYSKLTVDKSRWQQGNVFSCSVMHEALHNHYTQKSLSLSPGKGSQVQLQQSGPGLVKPSQTLSLTCAISGDSVSSNSATWNWIRQSPSRDLEWLGRTYYRSKWYRDYVGSVKSRIIINPDTSNNQFSLQLNSVTPEDTAIYYCTRAQWLGGDYPYYYSMDVWGQGTTVTVSSASTKGPSVFPLAPCSRSTSESTAALGCLVKDYFPEPVTVSWNSGALTSGVHTFPAVLQSSGLYSLSSVVTVPSSNFGTQTYTCNVDHKPSNTKVDKTV
light: B3 VL
notes: Entry probably still carries the signal peptide; Tested as culture supernatant; not shown: human immunoglobulin kappa light chain constant region

Residue numbers refer to the chain shown, from its start.

T1 sequence (P10747 19-152): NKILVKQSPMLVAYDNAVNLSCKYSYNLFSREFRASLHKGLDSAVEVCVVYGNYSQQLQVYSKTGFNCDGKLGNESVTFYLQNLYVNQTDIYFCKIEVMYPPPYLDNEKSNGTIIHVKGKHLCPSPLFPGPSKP
T2 sequence (P25942 21-193 limits assumed): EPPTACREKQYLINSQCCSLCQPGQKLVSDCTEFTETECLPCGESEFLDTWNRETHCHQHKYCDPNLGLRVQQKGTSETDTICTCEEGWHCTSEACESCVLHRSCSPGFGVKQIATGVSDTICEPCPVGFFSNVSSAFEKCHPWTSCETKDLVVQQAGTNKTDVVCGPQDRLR

The first test has as its target T1, human-CD28-Fc fusion protein (human, UniProt P10747 19-152).
T1 construct: also called Fc fusion protein of the human-CD28 extracellular domain with IgG; hECD28-Fc
Put plainly: phage ELISA, human-CD28-Fc coated at 2 µg/mL, anti-E tag HRP detection. As for the experimental part:
Each single colony obtained from the antibody library to which the panning had been applied was seeded in 200 μL of 2×YTAG culture medium and subjected to a shaking culture at 30° C. for 4 to 5 hours. Then, 200 μL of 1×10¹⁰ pfu/mL M13KO helper phage was added to the culture solution for the infection (the shaking culture at 30° C. for 1 hour). After changing the culture medium to 2×YTAK, the shaking culture was carried out at 30° C. overnight. The binding property to the antigen was examined by the following steps (ELISA) using this culture supernatant as a phage solution.
The human-CD28-Fc fusion protein was diluted with Coating buffer (50 mM carbonate buffer, pH 9) to give a concentration of 2 μg/mL. The obtained solution was put into the Maxisorp Plate (manufactured by Nalge Nunc International) at 50 μL/well and incubated at 4° C. overnight to be immobilized. Then, to the well, 200 μL/well of blocking reagent (SuperBlock (registered trademark) Blocking Buffer, manufactured by Pierce Protein Research) was added, the resulting object was incubated at a room temperature for 30 minutes to complete the blocking. To the well, 50 μL/well of each phage solution was added, and incubated at a room temperature for 1 hour. […] The absorbance at the wavelength of 450 nm was measured with a microplate reader (SPECTRAMAX190, manufactured by Molecular Devices Inc).
(In general: In an ELISA, binding on a coated surface is turned into a signal by an enzyme label.)
On to B1, for which the binding result is listed as “binds”. With B2, the binding result was “binds”.

A further test has as its target T2, human-CD40-Fc fusion protein (human, UniProt P25942 21-193).
T2 construct: also called human-CD4O-Fc fusion protein; not shown: Fc part; origin and limits not described
Put plainly: ELISA, human-CD40-Fc coated at 1 µg/mL, culture supernatant, anti-human κ HRP detection. As for the experimental part: The human-CD4O-Fc fusion protein and the human-CD28-Fc fusion protein were adjusted to give a concentration of 1 μg/mL using coating buffer (50 mM carbonate buffer, pH 9). To a well, 50 μL/well of the obtained human-CD4O-Fc fusion prostein or the obtained human-CD28-Fc fusion protein was added into the Maxisorp Plate (manufactured by Nalge Nunc International) respectively, and incubated at 4° C. overnight to be immobilized. Then, 200 μL/well of blocking reagent (SuperBlock (registered trademark) Blocking Buffer, manufactured by Pierce Protein Research) was added to the well, followed by incubation at room temperature for 30 minutes for blocking. Then, 50 μL/well of the culture supernatant comprising each antibody obtained in above Examples was added to the well followed by incubation at room temperature for 1 hour. After washing three times with Washing buffer (0.1% Tween20-TBS), Affinity Isolated Antibody HRP Conjugated Goat F(ab)₂ anti-Human κ (manufactured by EY Laboratories Inc) was diluted with assay diluent (0.1% Tween20-TBS containing Block Ace manufactured by Dainippon Sumitomo Pharma Co. Ltd. by 10%). Then, 50 μL of the obtained solution was added to each well followed by incubation at a room temperature for 1 hour. […] The absorbance at the wavelength of 450 nm was measured with a microplate reader (SPECTRAMAX190, manufactured by Molecular Devices Inc).
Take B3: the binding result was “no binding”. Take B4: the binding result is recorded as “no binding”.

A further test has as its target T1, human-CD28-Fc fusion protein. Kind of test: ELISA, human-CD28-Fc coated at 1 µg/mL, culture supernatant, anti-human κ HRP detection. As for the experimental part: The human-CD4O-Fc fusion protein and the human-CD28-Fc fusion protein were adjusted to give a concentration of 1 μg/mL using coating buffer (50 mM carbonate buffer, pH 9). To a well, 50 μL/well of the obtained human-CD4O-Fc fusion prostein or the obtained human-CD28-Fc fusion protein was added into the Maxisorp Plate (manufactured by Nalge Nunc International) respectively, and incubated at 4° C. overnight to be immobilized. Then, 200 μL/well of blocking reagent (SuperBlock (registered trademark) Blocking Buffer, manufactured by Pierce Protein Research) was added to the well, followed by incubation at room temperature for 30 minutes for blocking. Then, 50 μL/well of the culture supernatant comprising each antibody obtained in above Examples was added to the well followed by incubation at room temperature for 1 hour. After washing three times with Washing buffer (0.1% Tween20-TBS), Affinity Isolated Antibody HRP Conjugated Goat F(ab)₂ anti-Human κ (manufactured by EY Laboratories Inc) was diluted with assay diluent (0.1% Tween20-TBS containing Block Ace manufactured by Dainippon Sumitomo Pharma Co. Ltd. by 10%). Then, 50 μL of the obtained solution was added to each well followed by incubation at a room temperature for 1 hour. After washing three times with washing buffer, 50 μL of TMB (manufactured by Dako) coloring substrate solution was added to each well, followed by incubation in a dark room at room temperature. After developping color, 0.5 M vitriol (50 μL/well) was added to stop the reaction. The absorbance at the wavelength of 450 nm was measured with a microplate reader (SPECTRAMAX190, manufactured by Molecular Devices Inc).
Consider B5, for which the binding result was “binds”. On the same count and under the same terms, next, B6: “binds”; B7: “binds”; B8: “binds”. Still for that read-out and setting: next, B9: “no binding”. Still for that read-out and setting: the value for B3 was “binds”; that for B4 was “binds”; that for B10 was “binds”. On to B11, for which the binding result is given as “binds”. On the same count and under the same terms, the value for B12 was “binds”.
